In this assay the target is EphA2 extracellular domain fused to the Fc portion of an antibody (EphA2 Fc). Description: ELISA, inhibition of ephrin-A5 AP binding to immobilized EphA2 Fc; representative experiment; concentrations in nM. (In an ELISA, binding on a coated surface is turned into a signal by an enzyme label.)

Our source for the IC50 values is US12398179.

EphA2 extracellular domain fused to the Fc portion of an antibody (EphA2 Fc), sequence (P29317 whole entry, the tested form may be a part): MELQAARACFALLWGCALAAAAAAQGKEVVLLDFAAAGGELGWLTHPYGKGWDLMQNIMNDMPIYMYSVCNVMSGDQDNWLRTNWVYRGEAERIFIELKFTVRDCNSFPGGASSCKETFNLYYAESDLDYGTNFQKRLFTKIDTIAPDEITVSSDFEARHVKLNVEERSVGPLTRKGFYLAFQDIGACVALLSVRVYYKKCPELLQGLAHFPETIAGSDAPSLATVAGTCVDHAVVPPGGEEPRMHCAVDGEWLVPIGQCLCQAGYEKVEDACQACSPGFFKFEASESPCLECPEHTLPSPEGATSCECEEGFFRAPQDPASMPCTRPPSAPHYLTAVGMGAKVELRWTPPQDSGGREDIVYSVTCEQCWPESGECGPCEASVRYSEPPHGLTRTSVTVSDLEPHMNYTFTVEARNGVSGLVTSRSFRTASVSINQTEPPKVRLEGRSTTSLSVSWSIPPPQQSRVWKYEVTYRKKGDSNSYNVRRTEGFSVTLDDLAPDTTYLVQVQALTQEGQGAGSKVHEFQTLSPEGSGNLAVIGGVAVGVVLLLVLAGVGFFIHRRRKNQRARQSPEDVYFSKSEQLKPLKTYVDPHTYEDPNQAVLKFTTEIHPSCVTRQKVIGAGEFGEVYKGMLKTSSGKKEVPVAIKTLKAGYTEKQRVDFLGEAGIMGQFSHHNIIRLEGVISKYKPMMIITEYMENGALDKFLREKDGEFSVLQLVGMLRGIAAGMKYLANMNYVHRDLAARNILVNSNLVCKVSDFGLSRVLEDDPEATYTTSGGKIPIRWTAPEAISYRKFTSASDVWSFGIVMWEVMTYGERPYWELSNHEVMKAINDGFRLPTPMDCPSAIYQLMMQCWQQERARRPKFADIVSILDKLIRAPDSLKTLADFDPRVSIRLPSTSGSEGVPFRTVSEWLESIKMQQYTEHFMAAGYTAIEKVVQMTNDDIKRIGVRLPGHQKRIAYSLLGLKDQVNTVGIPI

With YSA1-10am (peptide), the half-maximal inhibitory concentration (IC50) amounted to 3.5 µM.
Next, YSA-K-bio (peptide): 2.8 µM.

In general, IC50 refers to the concentration that gives 50% inhibition. A high value points to a need for much substance.
